Earlier results on one substance are cited in paper doi:10.1101/2025.04.18.649563.

The data set has as its target F-actin (Oryctolagus cuniculus) (UniProt P68135). Conditions: cited from earlier work.

In the case of LifeAct (from UniProt Q08641), the Kd is 2.2 µM.

By Kd is commonly meant a measure of binding affinity in units of concentration.
